Laboratory results: patent US20150110760A1

Legend:
[1] = biological target: B7-H6 (human) (UniProt Q68D85); assay: cell-based or functional assay
[2] = biological target: NKp30 ligands on human dendritic cells (iDCs and mDCs); assay: cell-based or functional assay

Chain of UniProt Q68D85 (Q68D85 25-454): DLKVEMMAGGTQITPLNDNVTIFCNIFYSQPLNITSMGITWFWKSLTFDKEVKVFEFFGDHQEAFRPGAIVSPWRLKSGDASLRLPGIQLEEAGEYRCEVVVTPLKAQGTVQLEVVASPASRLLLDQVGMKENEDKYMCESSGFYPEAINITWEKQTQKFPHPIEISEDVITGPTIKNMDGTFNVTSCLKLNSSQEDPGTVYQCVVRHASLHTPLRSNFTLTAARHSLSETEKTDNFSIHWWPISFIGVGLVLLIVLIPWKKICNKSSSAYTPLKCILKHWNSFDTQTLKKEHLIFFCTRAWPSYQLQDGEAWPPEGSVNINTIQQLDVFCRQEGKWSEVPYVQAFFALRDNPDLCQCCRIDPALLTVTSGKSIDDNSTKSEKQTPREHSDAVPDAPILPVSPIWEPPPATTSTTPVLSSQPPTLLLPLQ

| specific lysis of RMA/B7-H6 cells by transduced mouse T cells, 5-h LDH release, E:T 1:1 [1] | IFN-γ production by transduced human T cells after 24 h coculture with iDCs or mDCs (5:1), ELISA [2] | Substance |
| --- | --- | --- |
| 80% | – | NKp30-CD3ζ chimeric receptor |
| 80% | 200 to 800 pg/mL | NKp30-CD28-CD3ζ chimeric receptor |
